From patent US20090305961

System: plasminogen

## human low molecular weight urokinase-plasminogen activator (LMW-u-PA)
  amidolytic activity, chromogenic substrates Chromozyme U and S-2251, absorbance at 405 nm: Cells transfected with pLMW-u-PA showed much higher levels of u-PA activity compared to cells transfected with pSPUC1A
